Assay: soluble on expression in E. coli; label from the status in PepcDB or PDB records

Row | Sequence | soluble on expression in E. coli
1 | HAIFERHENDLHCEVPISFATAALGGSIEVPTLEGRVTLKIPAETQTGKVFRLRSKGMKSVRGYGQGDLLCKVVVETPVNLSREQKELLNKLQDSLENAKGTH | not soluble
2 | EHEICAGETGVPLATDTIMLSRQVSFDRIRLLSGVSNDELQLLNPQYKRGIIPGNTQLCRLRLPVASIKKLDKVRDSLYSPDLEASVSDFPEQGGQHSGGSGRTAIFHNVKQGETLLSIAKRYGTTVAAIKRANGLKSSSVKPGQRLQITKSSASGTKKKSKYSAKRKSRRRK | not soluble
3 | MGSDKIHHHHHHLIPKIIHYCWFGNSELPDIVKDCISSWKKYCPEYEIKRWDESNYDVSKNAYTRAAYKNKKWAFLTDYVRLDVLYNEGGVYMDTDVKLIRSLDPLIDKGPFMSFEKRGRVNTGVGFACEAGNPIVKENKDYYENNLFVDENGNFEPEICVKITTKILIKHGLNYTENVVQKVDGLIVYSSDYFSPKKLGTEKITLTSNTYGIHLFASSWYKGSKIYKKMKYHLIPLKEFIKYKILSKKLYE | not soluble
4 | MRGSHHHHHHGSGSMHQRQTLYQLMDGLNTFYQQSLQQPVATSARQYLEKRGLSHEVIARFAIGFAPPGWDNVLKRFGGNPENRQSLIDAGMLVTNDQGRSYDRFRERVMFPIRDKRGRVIGFGGRVLGNDTPKYLNSPETDIFHKGRQLYGLYEAQQDNAEPNRLLVVEGYMDVVALAQYGINYAVASLGTSTTADHIQLLFRATNNVICCYDGDRAGRDAAWRALETALPYMTDGRQLRFMFLPDGEDPDTLVRKEGKEAFEARMEQAMPLSAFLFNSLMPQVDLSTPDGRARLSTLALPLISQVPGETLRIYLRQELGNKLGILDDSQLERLMPK | soluble
5 | GPGSMLWVDRYRPKTLKDVELYPELKEVLTRLSKAQDLPHLLFYGPSGSGKKTRAMAMLHEIYGPSVFSVRLEHKSVQVSDSKVVDIATLSSPHHIDINPSDAGNYDRAIVMQMIREIAQTVPLHSTSGNRKNVPYKVVVLNEVDKMSRTAQHALRRTMEKYMNTCRLFLLCNSTSRLIPPLRSRCLGIRVASHSKDNLKLAVQRVCEGEGRPLPSVAFLNSLALRSDGNLRRGLLMLEASALAKVDWSGNGAAIPQADWKLFLDEISHDIVAEQTPKRLHEVRLKFYDLLAQCISGETILKTLVDSLLAAVAPALQRPLIELAAKYDHNMKLGTKPILHLEAFVAAVMKLIKQQ | not soluble
6 | MSLELAQQWTQQRQALGERDDAMAALKTLDSSYAATTVFPPKGEVSLHERAGLYQGNEVNPPLAAAYRRELETQLLPRVARMLEAQIRGNMQNRERLLNSLRAYLMLNLRERRENGWLKDWVATDWSQRYAGNGTVQNGLNTHFARLLEQPFSYPLNETLVAQARQVLRSESLANVVYRVLREQARSLPEYRFGQHLGPQAGLFVGTDYVIPGFYTQQGYQQYFVVQGASLVNDILRDNWVLGEGSGISDMDLRRLMVELEQLYFRDYANFWSEAVGRLGLLPFNDAGEGADQVSGLLAANSPILQLLLEVRENTRFPVLAESAEALAEASDKAAEKGGKLGKAAAAAAGKARDALAKNLPDTAKKSLQRRFEPLHRLLDDNNGPAADLTPLLQALNELQLQLAGLARASQPEQEGHHHHHH | soluble
7 | AESESFVLDFSQPSADYLDFRNRLQADHVCLENCVLKDKAIAGTVKVQNLAFEKTVKIRMTFDTWKSYTDFPCQYVKDTYAGSDRDTFSFDISLPEKIQSYERMEFAVYYECNGQTYWDSNRGKNYRIIRAELKSTQGMTKPHSGPDLG | soluble
8 | MGSDKIHHHHHHMVRHKRDIQRDTVPEWEDLRQLAHEIKRYNVTHLDELLLRFEENARRNGVIVHWAKDAKEHNEILYGILRDHGVKKFVKSKSMLTEECHLNEYLIEKGINVIETDLGERILQLMEEPPSHIVMPAIHIKREAVSDLFHDKLGTEKGNYDPTYLTRAARKSLREDFISADAAMTGGNFAVASTGEVVVCTNEGNADMGMACQKLNICSFGLEKLVPDLDAVGVFTRLLARSGTGQPSTTYTAHYRKPHEGGELHYIIVDNGRTDIIENEEHVKTLNCIRCGACMNTCPVYRRSGGYSYTYFIPGPIGINLGMLKDPRRYSDNVSACSLCLSCSNVCPVKIDLGEQIYRWRQDLDHLGRASQEKKLMSAGMKYLMDSPWRFNTALKMAPMANSLPRFLLYNGLNAWGKGRELPRFASTSFNNWWKKNIKK | not soluble
9 | MTPSRPSPDFPDGGFVQVRGARQHNLKDISVKVPRDALVVFTGVSGSGKSSLAFGTLYAEAQRRYLESVSPYARRLFNQAGVPDVDAIDGLPPAVALQQARGTPTARSSVGSVTTLSNLLRMLYSRAGDYPPGQGIVYAEGFSPNTPEGACPECHGLGRVYTVTEDSMVPDPSLTIRERAVAAWPQAWGGQNQRDILVTLGIDVDVPWRELPEETRHWILFTDEQPVVPVYPGLTPAETQRALKKKMEPSYMGTFSSARRHVLHTFANTESASMKKRVQGYMISEECPLCHGKRLRQEALNVTFAGLDITELSRLPLARVSELLRPYAEEREPGHAERVKNRPEQAIALQRMAADLVKRLDVLLHLGLGYLGLDRSTPTLSPGELQRLRLATQLYSNLFGVVYVLDEPSAGLHPADTEALLSALENLKRGGNSLFVVEHDLDVIRRADWLVDVGPEAGEKGGEILYSGPPEGLKHVPESQTGQYLFADRHTEPHTPREPAGWLELNGVTRNNLDNLDVRFPLGVMTSVTGVSGSGKSTLVSQALVDALAAHFGQPVNPDPEDDEDPADHTAGSARLGGDLAQITRLVRVDQKPIGRTPRSNMATYTGLFDQVRKLFAATPLAKKRGYNAGRFSFNVKGGRCEHCQGEGWVMVELLFLPSVYAPCPVCHGTRYNAETLEVEYRGKNIADVLALTVDEAHDFFADESAIFRALDTLREVGLGYLRLGQPATELSGGEAQRIKLATELRRSGRGGTVYVLDEPTTGLHPADVERLQRQLVKLVDAGNTVIAVEHKMQVVAASDWVLDIGPGAGEDGGRLVAQGTPAEVAQAAGSVTAPYLRAALR | soluble
10 | MARAVHRSGLVALGIATALMASCAFAAKDVVVAVGSNFTTLDPYDANDTLSQAVAKSFYQGLFGLDKEMKLKNVLAESYTVSDDGITYTVKLREGIKFQDGTDFNAAAVKANLDRASDPANHLKRYNLYKNIAKTEAIDPTTVKITLKQPFSAFINILAHPATAMISPAALEKYGKEIGFYPVGTGPYELDTWNQTDFVKVKKFAGYWQPGLPKLDSITWRPVADNNTRAAMLQTGEAQFAFPIPYEQATLLEKNKNIELMASPSIMQRYISMNVTQKPFDNPKVREALNYAINRPALVKVAFAGYATPATGVVPPSIAYAQSYKPWPYDPVKARELLKEAGYPNGFSTTLWSSHNHSTAQKVLQFTQQQLAQVGIKAQVTAMDAGQRAAEVEGKGQKESGVRMFYTGWSASTGEADWALSPLFASQNWPPTLFNTAFYSNKQVDDFLAQALKTNDPAEKTRLYKAAQDIIWQESPWIPLVVEKLVSAHSKNLTGFWIMPDTGFSFEDADLQ | soluble
11 | MSLAQKVKLSTIAETLGLSTATVSLALRDSPLVAAVTRDKIKEQARALGYIYNRRAASLRTSRSGIIGVVVHDIMNPFYGEILKAIEAELDRDKQTFILSNHYDSVEKQRDFIETLLQLGGDGVIMSPAIGTPPQDIQLAEDNGMPAILIARSIEGLDVPIFRGDDAYGISLATNHLIGLGHRCIAMVGGTDQTSTGRDRYQGYVNALRKANIEVDPDLRIPGPRSKQGGFEAAVHLLSLPQKPTAVVCWNDLVAIGMMNGIARAGLVPGVDISVTGYDDLEEASIATPALTTVWNGQAEVGRSAARALLDKLSGSHEPDGIHLIKPEMRIRQSTGPLRVTEGHHHHHH | soluble
12 | MGSDKIHHHHHHMSFEQDSTPRGNPVSCESARETNEFSPGKTCIKLMNYRRLTPSMSLLLVFEAAARHESYTRAADELSLSQSAISRQVQTLEDQLGVSLFRREGRSVKLTEVGRRYFVELSGALGRIRGATLQAMSHQAGAGTLRLATLPTFGSKWLLPHLHDFYAAHPGVTVHLHSRIGGIDFHTDDLDAAITVGSGDWPGLHAHRLYNEFLIAIASPDAAGRRKAGPRAPAWAVGQTLLGVTSNQHAWAEWFSHFGLDHREMRIGPSFELTSHLIQAVRAGMGIGLVPKVLVEDELSRNELVSIGDAITSQRSYYLVYPPENDTLPSLVAFREWLLKSC | not soluble
13 | MSWMDKFDPKLQTMVKEVDAQIAPQLAKIDARILENQNKVLTSFQNHHVAESYLTGSTGYGHNDEGRDVLEAIYADVLGGEDALVRPQFVSGTHAIGVALLGLVRPGDDIVYITGKPYDTLQEVLGLAGNGIGAPQEYGIGVDYVDLLPNGAVDDDAVKARLNDKTKVVAIQRSRGYATRDSFTVDQIAAMIKVVRSVLPNVWIFVDNAYGEVSETKEPLEVGADVMAGSLFKNAGGGMAKTGGYIVGKKDLIDRISYRFTVPGLGGAEGATVGALADMYQGFFISPQTTGNAIKGAIFEAALFAKLGLDVSPAWDAPRTDLIQTVNFGNADDMVKFAKAVQANSPVDSFVTPIPEKMAGYEDQVIMAGGTFVAGSTIEFSGDGPLRPPYTLYLQGGLTYAHIKLATMGAAQSTFFDNLEHHHHHH | not soluble
14 | MSLYQHGYHAGNFADVIKHITLTRLLAYLTHKDKPLFYLETHSGRGIYDLKDKQSLKTEEYKEGINPVWLDRENLPSLFLEYISVIKQINLNSTLSYYPGSPYFAINQLRSQDRLYLCELHPTEYNFLLKLPHFNKKVYVNHTDGVSKLNALLPPPEKRGLIFIDPSYERKEEYKEIPYAIKNAYSKFSTGLYCVWYPVVNKAWTEQFLRKMREISSKSVRIELHLNPLINEGMTGCGLWIINPPYTFPSEIKLVLETLTTYFNPGSSSYMIESGSKLCHGLKGIITITTDPNSSSVDKLAAALEHHHHHH | soluble
15 | MKRTIFLLMSILLLLTACGDGHKQTSSDKEQSEHKDNHNKNQVKQIATDKKVQGDNYRTILPFKESQARGLLQDNMANGYNGEDFESGLLELSKEIFPTNKYLYQDGQYLDKKTINAYLDPKYTKKEIDKMSEKEKKSKNANENLGLNPSHNGETDEEKIAKNSPAYLSNILEQDFYGNSDSKGKNIKGMTIGLAMNSVYYYKKEKDGETFSKDLSDKEIEKQGKQMASEMLSRLRENSDLKDIPIHFAIYKQSSQDSITPGEFIVGTTVEEGKTKINSWDNINEKAALIPSSTAADYDETLNNNFKQFNDNLQSYFSNFTQAVGKVKFVNKKAKQLTVDLPIDYYGQAETIGITQYVTEQAEKYFDKLDEYEIRIKDGNTPRALISKTKDDKEPQVHIYHN | not soluble
16 | MGSSHHHHHHSSGLVPRGSHMTPDDIAGFYAKRADLDLDNYIELDFDFECAGDPHEAAAHLCSEQSTAQWRRVGFDEDFRPRFAAKVLELSAEPRPSGFSVPVECAARGPVHACRVTIAHPHGNFGAKIPNLLSAVCGEGVFFSPGIPLIRLQDIRFPEPYLAAFDGPRFGIAGVRERLQAFDRPIFFGVIKPNIGLPPQPFAELGYQSWTGGLDIAKDDEMLADVDWCPLAERAALLGDACRRASAETGVPKIYLANITDEVDRLTELHDVAVANGAGALLINAMPVGLSAVRMLRKHATVPLIAHFPFIAAFSRLANYGIHSRVMTRLQRLAGFDVVIMPGFGPRMMTPEHEVLDCIRACLEPMGPIKPCLPVPGGSDSAATLENVYRKVGSADFGFVPGRGVFGHPMGPAAGATSIRQAWDAIAAGIPVPDHAASHPELAAALRAFGGR | soluble
17 | MGSDKIHHHHHHMSNVISVENLGKKYLISHQGREPYTALRDVLTDGARAFYRRLFSPGTSQADAQAEEFWALKDVSFEVKQGDRIGIIGRNGAGKSTLLKILSRITEPTEGRVRIRGRVASLLEVGTGFHPELTGRENIFLNGAILGMNRAEIARKFDEIVAFAEIEKFLDTPVKRYSSGMYVRLAFAVAAHLEPEILIVDEVLAVGDAQFQNKCLGKMEDVSTKEGRTVLFVSHNMGAIDRLCTRAVLLERGRVRLADFTKPVIQMYLDKAKNAISAWSCSTSIPDFDGIFFESISIVNKDRKIAEVLPSNEPFSITLVVNATASLKGVQIAIRITNEQGIPILTTTNCDKAGKLQEISRGRYRYTVSLPASFLPPGYYTLIVASFVPGEKLFDGVEDKLGFCIDDMGSLATLMKDGRLGVVTPLMPWDEVRL | not soluble

— the DeepSol protein solubility set
